Key:
[1] = tested on: NC(=O)c1ccc[n+]([C@@H]2O[C@H](COP(=O)(O)OP(=O)(O)OC[C@H]3O[C@@H](n4cnc5c(N)ncnc54)[C@H](OP(=O)(O)O)[C@@H]3O)[C@@H](O)[C@H]2O)c1; assay: purified protein; conditions: Mn2+ (2 mM MnCl2), 1.0 mM isocitrate, 35 mM Tris-HCl pH 7.5, 25 °C, varied: cofactor
[2] = tested on: O=C(O)CC(C(=O)O)C(O)C(=O)O; assay: purified protein; conditions: Mn2+ (2 mM MnCl2), NADP+ co-substrate, 35 mM Tris-HCl pH 7.5, 25 °C, DL-isocitrate in the assay
[3] = target: Isocitrate dehydrogenase 2 from Acinetobacter baumannii (AbIDH2) (Acinetobacter baumannii); assay: AUC; sedimentation velocity, Beckman XL-A, An-60 Ti rotor, 20 °C, 45,000 g, continuous c(s) distribution
[4] = target: Isocitrate dehydrogenase 2 from Acinetobacter baumannii (AbIDH2) (Acinetobacter baumannii); assay: SEC; analytical gel filtration, Superdex 200 10/300 column, 50 mM NaH2PO4 pH 7.5, 300 mM NaCl, flow rate 0.5 mL/min; mass from a calibration curve

stoichiometry N [3] | stoichiometry N [4] | Substance | Km [1] [µM] | kcat [1] [s⁻¹] | kcat/Km [1] [M⁻¹ s⁻¹] | Km [2] [µM] | kcat [2] [s⁻¹]
– | – | AbIDH2 (Acinetobacter baumannii ATCC 19606 = CIP 70.34 = JCM 6841) | 94 ± 6 | 36.9 ± 1.2 | 390000 | 20.6 ± 3.1 | 39.2 ± 2.1
2 | 2 | Isocitrate dehydrogenase 2 from Acinetobacter baumannii (AbIDH2) (enzyme) | – | – | – | – | –
